B1: CPEB3 Ribozyme (parent)
chain: GGGGGCCACAGCAGAAGCGUUCACGUCGCGGCCCCUGUCAGAUUCUGGUGAAUCUGCGAAUUCUGCUGU

Variants of: B1
Assay: self-cleavage, relative activity (ratio to wild type); higher = more cleavage; co-transcriptional

Row | Variant | self-cleavage
1 | GGGGGCCACAGCCGAAGCGUUCACGUCGCGGCCCCUGUCAGCUUCUGGUGAAUCUGCGAAUUCUGCUGU [A13C A42C] | 0.602
2 | GGGGGCCACAGUAGAAGCGUUCACGUCGCGGCCCCUGUCACAUUCUGGUGAAUCUGCGAAUUCUGCUGU [C12U G41C] | 0.617
3 | GGGGGCCACAGUAGAAGCGUUCACGUCGCGGCCCCUGUCAAAUUCUGGUGAAUCUGCGAAUUCUGCUGU [C12U G41A] | 0.716
4 | GGGGGCCACAGUAGAAGCGUUCACGUCGCGGCCCCUGUCAGAUUCUGGUGAAUCUGCGAAUUAUGCUGU [C12U C63A] | 0.56
5 | GGGGGCCACAGUAGAAGCGUUCACGUCGCGGCCCCUGUCAGAUUCUGGUGAAUCUGCGAAUUUUGCUGU [C12U C63U] | 0.898
6 | GGGGGCCACAGCCGUAGCGUUCACGUCGCGGCCCCUGUCAGAUUCUGGUGAAUCUGCGAAUUCUGCUGU [A13C A15U] | 0.145
7 | GGGGGCCACAGCCGCAGCGUUCACGUCGCGGCCCCUGUCAGAUUCUGGUGAAUCUGCGAAUUCUGCUGU [A13C A15C] | 0.264
8 | GGGGGCCACAGCCGAAGCGUUCACGUCGCGGCCCCUGUCAGAUUCUGGUGCAUCUGCGAAUUCUGCUGU [A13C A51C] | 0.827
9 | GGGGGCCACAGCCGAAGCGUUCACGUCGCGGCCCCUGUCAGAUUCUGGUGUAUCUGCGAAUUCUGCUGU [A13C A51U] | 0.744
10 | GGGGGCCACAGCCGAAGCGUUGACGUCGCGGCCCCUGUCAGAUUCUGGUGAAUCUGCGAAUUCUGCUGU [A13C C22G] | 0.149
11 | GGGGGCCACAGCCGAAGCGUUAACGUCGCGGCCCCUGUCAGAUUCUGGUGAAUCUGCGAAUUCUGCUGU [A13C C22A] | 0.0721
12 | GGGGGCCACAGUAGAAGCGGUCACGUCGCGGCCCCUGUCAGAUUCUGGUGAAUCUGCGAAUUCUGCUGU [C12U U20G] | 0.17
13 | GGGGGCCACAGUAGAAGCGUUCACGUCGCGGCCCCUGUAAGAUUCUGGUGAAUCUGCGAAUUCUGCUGU [C12U C39A] | 0.756
14 | GGGGGCCACAGUAGAAGCGUUCCCGUCGCGGCCCCUGUCAGAUUCUGGUGAAUCUGCGAAUUCUGCUGU [C12U A23C] | 0.93
15 | GGGGGCCACAGUAGAAGCGUUCACGUCGCGGUCCCUGUCAGAUUCUGGUGAAUCUGCGAAUUCUGCUGU [C12U C32U] | 0.999
16 | GGGGGCCACAGCCGAAGCGUUCACGUCGCGGCCCCUGUCAGAUUCUGGUGAAUCUGCGAUUUCUGCUGU [A13C A60U] | 0.276
17 | GGGGGCCACAGUAGAAGCGUUCACGUCGCGGCCCCUGUCAGAUUCUGGUUAAUCUGCGAAUUCUGCUGU [C12U G50U] | 0.953
18 | GGGGGCCACAGCCGAAGCGUUCACGUCGCGGCCCCUGUCAGAUUCUGGUGAGUCUGCGAAUUCUGCUGU [A13C A52G] | 0.823
19 | GGGGGCCACAGUAGAAGCGUUCACGUCGCCGCCCCUGUCAGAUUCUGGUGAAUCUGCGAAUUCUGCUGU [C12U G30C] | 0.67
20 | GGGGGCCACAGUAGAAGCGUUCACGUCGCUGCCCCUGUCAGAUUCUGGUGAAUCUGCGAAUUCUGCUGU [C12U G30U] | 0.368

Row | Variant | self-cleavage
21 | GGGGGCCACAGCCGAAGCGUUCAGGUCGCGGCCCCUGUCAGAUUCUGGUGAAUCUGCGAAUUCUGCUGU [A13C C24G] | 0.0828
22 | GGGGGCCACAGUAGAAGCGUUCACGUCGCGGCCCCCGUCAGAUUCUGGUGAAUCUGCGAAUUCUGCUGU [C12U U36C] | 0.892
23 | GGGGGCCACAGUAGAAGCGUUCACGUCGCGGCCCCUGUCAGAUUCUGGUGCAUCUGCGAAUUCUGCUGU [C12U A51C] | 0.977
24 | GGGGGCCACAGUAGCAGCGUUCACGUCGCGGCCCCUGUCAGAUUCUGGUGAAUCUGCGAAUUCUGCUGU [C12U A15C] | 0.389
25 | GGGGGCCACAGUAGAAGCGUUCACGUCGCGGCCCCUGUCAGAUUCUGGUGAAUCUGCGAAUCCUGCUGU [C12U U62C] | 0.511
26 | GGGGGCCACAGUAGAAGCGUUCACGUCGCGGCCCCUGUCAGAUUCUGGUGAAUCUGCGAUUUCUGCUGU [C12U A60U] | 0.374
27 | GGGGGCCACAGUAGAAGCGUUCACGUCGCGGCCCCUGUCAGAUUCUGGUGAACCUGCGAAUUCUGCUGU [C12U U53C] | 0.785
28 | GGGGGCCACAGUAGAAGCGUUCACGUCGCGGCCCCUGUCAGAUUCUGGUGAAUCUGCGAAUUCUGCUGU [C12U] | 0.996
29 | GGGGGCCACAGUAGAAGCGUUAACGUCGCGGCCCCUGUCAGAUUCUGGUGAAUCUGCGAAUUCUGCUGU [C12U C22A] | 0.2
30 | GGGGGCCACAGUAGAAGCGUUCACGUCGCGGCCCCUGUCAGAUUCUGGUGAAUCUGUGAAUUCUGCUGU [C12U C57U] | 0.317
31 | GGGGGCCACAGUAGAAGCGUUCACGUCGCGGCCCCUGUCAGAUUCUGGUGAAUCAGCGAAUUCUGCUGU [C12U U55A] | 0.756
32 | GGGGGCCACAGUAGAAGCGUUCACGUCGCGGCCCCUGUCAGAUUCUGGAGAAUCUGCGAAUUCUGCUGU [C12U U49A] | 1.02
33 | GGGGGCCACAGUAGAAGCGUUCACGUCGCGGCCCCUGUCAGAUUCUGGUGAAUCUGCGAAUUCUGCUCU [C12U G68C] | 1.01
34 | GGGGGCCACAGGAGAAGCGUUCACGUCGCGGCCCCUGUCAGAUUCUGGUGAAUCUGCGAAUUCUGCCGU [C12G U67C] | 0.917
35 | GGGGGCCACAGCCGAAGCGUUCCCGUCGCGGCCCCUGUCAGAUUCUGGUGAAUCUGCGAAUUCUGCUGU [A13C A23C] | 0.83
36 | GGGGGCCACAGUAGAAGCGUUCACGUCGCGGCCCCUGUCAGAUUCUGGUGAUUCUGCGAAUUCUGCUGU [C12U A52U] | 0.952
37 | GGGGGCCACAGCCGAAGCGUUCACGUCGCGGCCCCUGUCGGAUUCUGGUGAAUCUGCGAAUUCUGCUGU [A13C A40G] | 0.738
38 | GGGGGCCACAGUAGAAGCGUUCACGUCGCGGCCCCUGUCAGAAUCUGGUGAAUCUGCGAAUUCUGCUGU [C12U U43A] | 0.868
39 | GGGGGCCACAGUACAAGCGUUCACGUCGCGGCCCCUGUCAGAUUCUGGUGAAUCUGCGAAUUCUGCUGU [C12U G14C] | 0.146

From the RNAGym collection of RNA variant scans (doi:10.7554/elife.80360)
